B1: VND7 promoter probe (dsDNA)
DNA 1: ATTGTTGGGTGGTCCCATAAAAAT
DNA 2: ATTTTTATGGGACCACCCAACAAT
B2: VND7 promoter cold probe (dsDNA)
DNA 1: ATTGTTGGGTGGTCCCATAAAAAT
DNA 2: ATTTTTATGGGACCACCCAACAAT

Experiments:
TCP4-HIS [1] = target: T1, TCP4-HIS (UniProt Q8LPR5 1-420); assay: EMSA; 20 mM HEPES-KOH pH 7.8, 100 mM KCl, 1 mM EDTA, 0.1% BSA, 10 ng herring sperm DNA, 10% glycerol; 100 fmol probe, 1 ug protein, 20 uL, 30 min, room temperature; settings: protein: recombinant; tags: His (pET32a fusion); chain copies: 2; label: biotin 3'; blunt
T1 sequence: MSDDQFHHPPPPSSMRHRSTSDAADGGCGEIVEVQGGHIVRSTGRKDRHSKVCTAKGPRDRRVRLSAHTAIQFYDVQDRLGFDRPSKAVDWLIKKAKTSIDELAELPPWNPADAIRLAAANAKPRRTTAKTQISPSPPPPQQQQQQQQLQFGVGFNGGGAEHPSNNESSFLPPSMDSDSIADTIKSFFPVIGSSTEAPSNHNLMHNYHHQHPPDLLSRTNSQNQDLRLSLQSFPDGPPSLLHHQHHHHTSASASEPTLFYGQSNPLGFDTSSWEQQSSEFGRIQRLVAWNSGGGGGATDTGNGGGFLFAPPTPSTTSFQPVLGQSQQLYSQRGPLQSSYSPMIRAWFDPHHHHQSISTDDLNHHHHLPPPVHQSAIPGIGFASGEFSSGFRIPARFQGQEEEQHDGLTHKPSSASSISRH

rTCP4-HIS = target: T2, rTCP4-HIS (UniProt Q8LPR5 1-420); assay: as above; settings: protein: recombinant; tags: His (pET32a fusion); chain copies: 2; label: biotin 3'; blunt
T2 sequence: T1 sequence

TCP4-HIS [2] = target: T1, TCP4-HIS; assay: competition; 10x and 50x unlabeled probe against N1, dose-dependent; 20 mM HEPES-KOH pH 7.8, 100 mM KCl, 1 mM EDTA, 0.1% BSA, 10 ng herring sperm DNA, 10% glycerol; 100 fmol probe, 1 ug protein, 20 uL, 30 min, room temperature; settings: protein: recombinant; tags: His (pET32a fusion); chain copies: 2; blunt

Binder | binding result (TCP4-HIS [1]) | binding result (rTCP4-HIS) | binding result (TCP4-HIS [2])
B1 | binds | binds | –
B2 | – | – | binds

Source: publication PMC5595714, “Activation of secondary cell wall biosynthesis by miR319‐targeted TCP4 transcription factor”
